In patent EP4667489A1 (Kyinno Biotechnology Co., Ltd., dated 2025):
Where two headings read alike, the source gives them in different places.

T1: LAG3-His (ACRO, Cat No.: LA3-H5222) (UniProt P18627 23-450)
T1 construct: bought protein; not shown: His tag
T1 sequence (looked up): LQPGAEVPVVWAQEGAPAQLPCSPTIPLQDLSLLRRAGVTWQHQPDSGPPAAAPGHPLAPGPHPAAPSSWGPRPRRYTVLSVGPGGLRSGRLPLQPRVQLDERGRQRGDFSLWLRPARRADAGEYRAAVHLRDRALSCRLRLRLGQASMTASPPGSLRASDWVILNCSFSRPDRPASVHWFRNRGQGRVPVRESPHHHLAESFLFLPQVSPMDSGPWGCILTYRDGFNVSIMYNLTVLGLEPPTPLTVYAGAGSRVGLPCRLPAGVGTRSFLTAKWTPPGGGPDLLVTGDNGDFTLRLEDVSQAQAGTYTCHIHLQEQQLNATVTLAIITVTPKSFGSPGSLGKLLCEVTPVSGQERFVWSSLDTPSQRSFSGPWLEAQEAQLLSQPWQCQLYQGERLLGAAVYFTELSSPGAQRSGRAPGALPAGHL

T2: human LAG3 expressed on 293T-LAG3 cells (human, UniProt P18627 23-525)
T2 construct: whole, on cells; 293T cells stably expressing human LAG3 (Kyinno KC-0214); also called LAG3-expressing cells
T2 sequence (looked up): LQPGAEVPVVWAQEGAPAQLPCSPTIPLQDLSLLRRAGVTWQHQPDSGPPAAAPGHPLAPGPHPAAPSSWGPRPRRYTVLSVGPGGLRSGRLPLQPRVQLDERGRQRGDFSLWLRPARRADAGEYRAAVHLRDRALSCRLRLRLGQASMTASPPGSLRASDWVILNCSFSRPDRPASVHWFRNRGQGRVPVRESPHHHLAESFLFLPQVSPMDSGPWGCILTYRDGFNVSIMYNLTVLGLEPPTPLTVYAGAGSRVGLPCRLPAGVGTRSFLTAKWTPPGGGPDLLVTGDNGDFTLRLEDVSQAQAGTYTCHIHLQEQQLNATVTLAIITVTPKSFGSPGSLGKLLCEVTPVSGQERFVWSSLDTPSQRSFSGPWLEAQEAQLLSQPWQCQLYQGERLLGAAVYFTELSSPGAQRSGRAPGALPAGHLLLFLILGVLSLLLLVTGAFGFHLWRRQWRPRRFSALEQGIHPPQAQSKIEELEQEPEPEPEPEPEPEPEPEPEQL

T3: LAG3-hFc (fusion protein of the human LAG3 extracellular domain and human IgG1-Fc) (human, UniProt P18627 23-450)
T3 construct: extracellular domain; not shown: human IgG1-Fc, Genbank CAC20454.1
T3 sequence (looked up): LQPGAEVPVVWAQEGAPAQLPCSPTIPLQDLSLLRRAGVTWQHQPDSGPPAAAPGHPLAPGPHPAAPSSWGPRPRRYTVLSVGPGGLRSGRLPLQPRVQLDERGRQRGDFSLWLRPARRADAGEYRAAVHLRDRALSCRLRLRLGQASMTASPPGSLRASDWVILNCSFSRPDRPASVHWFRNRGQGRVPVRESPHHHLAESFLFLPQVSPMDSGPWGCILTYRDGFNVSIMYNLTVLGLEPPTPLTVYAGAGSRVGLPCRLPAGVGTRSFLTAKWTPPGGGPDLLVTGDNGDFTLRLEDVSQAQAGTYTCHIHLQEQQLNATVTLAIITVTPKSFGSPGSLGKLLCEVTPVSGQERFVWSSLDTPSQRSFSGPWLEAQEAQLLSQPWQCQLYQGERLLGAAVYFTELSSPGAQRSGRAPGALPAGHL


Experiments:
[1] = target: T4, PD1-His (Kyinno, Cat No.: KP-1023) (UniProt Q15116 25-167, limits assumed); assay: BLI (ForteBio Octet), PD1-His as mobile phase
T4 construct: bought protein; not shown: His tag

[2] = target: T1, LAG3-His (ACRO, Cat No.: LA3-H5222); assay: BLI (ForteBio Octet), LAG3-His as mobile phase
[3] = target: T5, human PD1 expressed on 293T-PD1 cells (human, UniProt Q15116 25-288); assay: flow cytometry on 293T-PD1 cells
T5 construct: whole, on cells; 293T cells stably expressing human PD1 (Kyinno KC-0204); also called PD1-expressing cells; Jurkat NFAT-PD1-luc cells

[4] = target: T6, PD1-hFc (fusion protein of the human PD1 extracellular domain and human IgG1-Fc) (human, UniProt Q15116 25-170); assay: flow cytometry, blocking of PD1 fusion protein binding to 293T-PDL1 cells (procedure of Example 8)
T6 construct: extracellular domain; also called human PD1-hFc; not shown: human IgG1-Fc, Genbank CAC20454.1

[5] = target: T2, human LAG3 expressed on 293T-LAG3 cells; assay: flow cytometry on 293T-LAG3 cells
[6] = target: T3, LAG3-hFc (fusion protein of the human …); assay: flow cytometry, blocking of LAG3 fusion protein binding to Daudi cells (procedure of Example 5)
[7] = target: T4, PD1-His (Kyinno, Cat No.: KP-1023); assay: BLI (ForteBio Octet), PD1-His as mobile phase; remark: listed apart in the source
[8] = target: T2, human LAG3 expressed on 293T-LAG3 cells; assay: flow cytometry on 293T-LAG3 cells; remark: listed apart in the source
[9] = target: T3, LAG3-hFc (fusion protein of the human …); assay: flow cytometry, blocking of LAG3 fusion protein binding to Daudi cells (procedure of Example 5); remark: listed apart in the source
[10] = target: T5, human PD1 expressed on 293T-PD1 cells; assay: flow cytometry on 293T-PD1 cells; remark: listed apart in the source
[11] = target: T1, LAG3-His (ACRO, Cat No.: LA3-H5222); assay: BLI (ForteBio Octet), LAG3-His as mobile phase; remark: listed apart in the source
[12] = target: T6, PD1-hFc (fusion protein of the human …); assay: flow cytometry, blocking of PD1 fusion protein binding to 293T-PDL1 cells (procedure of Example 8); remark: listed apart in the source

T6 sequence (Q15116 25-170): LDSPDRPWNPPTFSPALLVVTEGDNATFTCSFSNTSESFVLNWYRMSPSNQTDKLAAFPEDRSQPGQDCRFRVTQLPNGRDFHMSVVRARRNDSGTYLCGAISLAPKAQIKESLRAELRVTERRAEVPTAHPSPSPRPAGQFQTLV
T4 sequence (Q15116 25-167 limits assumed): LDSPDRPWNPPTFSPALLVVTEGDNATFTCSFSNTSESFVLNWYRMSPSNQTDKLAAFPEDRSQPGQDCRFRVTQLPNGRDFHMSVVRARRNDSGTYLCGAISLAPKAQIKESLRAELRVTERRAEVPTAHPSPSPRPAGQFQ
T5 sequence (Q15116 25-288): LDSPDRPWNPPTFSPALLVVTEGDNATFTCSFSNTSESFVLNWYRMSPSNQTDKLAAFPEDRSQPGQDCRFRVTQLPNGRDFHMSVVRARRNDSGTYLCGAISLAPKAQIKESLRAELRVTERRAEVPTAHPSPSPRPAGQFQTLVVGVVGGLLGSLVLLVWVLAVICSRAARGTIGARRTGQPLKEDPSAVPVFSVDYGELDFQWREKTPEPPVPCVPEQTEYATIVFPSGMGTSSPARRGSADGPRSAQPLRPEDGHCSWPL

Kd [1] [nM] | koff [1] [s⁻¹] | kon [1] [M⁻¹ s⁻¹] | Kd [2] [nM] | koff [2] [s⁻¹] | kon [2] [M⁻¹ s⁻¹] | EC50 [3] [µg/mL] | IC50 [4] [µg/mL] | EC50 [5] [µg/mL] | IC50 [6] [µg/mL] | Kd [7] [nM] | koff [7] [s⁻¹] | kon [7] [M⁻¹ s⁻¹] | EC50 [8] [µg/mL] | IC50 [9] [µg/mL] | EC50 [10] [µg/mL] | Kd [11] [nM] | koff [11] [s⁻¹] | kon [11] [M⁻¹ s⁻¹] | IC50 [12] [µg/mL] | Binder
4.73 | 0.00105 | 222000 | 0.168 | 0.000195 | 1.16e+06 | 0.651 | 0.435 | 0.228 | 0.879 |  |  |  |  |  |  |  |  |  |  | KA-1835 H28G27V4×H107D1210-hIgG4M (bispecific antibody, PD1×LAG3 bispecific; first heavy chain targets PD1 (hIgG4 Hole), second targets LAG3 (hIgG4 Knob); common light chain 1) heavy 1: QVQLVESGGGLVKPGGSLRLSCAASGFTFSDYGMHWIRQAPGKGLEWVAYISSGSYTIYYADTVRDRFTISRDSAKNSLYLQMNSLRAEDTAVYYCVRRGPGYFGSTALDYWGQGTTVTVSSASTKGPSVFPLAPCSRSTSESTAALGCLVKDYFPEPVTVSWNSGALTSGVHTFPAVLQSSGLYSLSSVVTVPSSSLGTKTYTCNVDHKPSNTKVDKRVESKYGPPCPPCPAPEFLGGPSVFLFPPKPKDTLMISRTPEVTCVVVDVSQEDPEVQFNWYVDGVEVHNAKTKPREEQFNSTYRVVSVLTVLHQDWLNGKEYKCKVSNKGLPSSIEKTISKAKGQPREPQVCTLPPSQEEMTKNQVSLSCAVKGFYPSDIAVEWESNGQPENNYKTTPPVLDSDGSFFLVSRLTVDKSRWQEGNVFSCSVMHEALHNHYTQKSLSLSLG heavy 2: QVQLQESGPGLVKPSETLSLTCTVSGYSFTSGYYWNWIRQPPGKGLEWIGYVSYFGTANYNPALKNRVTISRDTSKNQFSLKLSSVTAADTAVYYCARGEEWDWSFDVWGQGTTVTVSSASTKGPSVFPLAPCSRSTSESTAALGCLVKDYFPEPVTVSWNSGALTSGVHTFPAVLQSSGLYSLSSVVTVPSSSLGTKTYTCNVDHKPSNTKVDKRVESKYGPPCPPCPAPEFLGGPSVFLFPPKPKDTLMISRTPEVTCVVVDVSQEDPEVQFNWYVDGVEVHNAKTKPREEQFNSTYRVVSVLTVLHQDWLNGKEYKCKVSNKGLPSSIEKTISKAKGQPREPQVYTLPPCQEEMTKNQVSLWCLVKGFYPSDIAVEWESNGQPENNYKTTPPVLDSDGSFFLYSRLTVDKSRWQEGNVFSCSVMHEALHNHYTQKSLSLSLG light: DIQITQSPSSLSASVGDRVTITCSATSGVSYMHWYQQKPGKAPKRLIYDTSRLASGVPSRFSGSGSGTDYTLTISSLQPEDFATYYCQQWSSNPPYTFGQGTRLEIKRTVAAPSVFIFPPSDEQLKSGTASVVCLLNNFYPREAKVQWKVDNALQSGNSQESVTEQDSKDSTYSLSSTLTLSKADYEKHKVYACEVTHQGLSSPVTKSFNRGEC
6.55 | 0.00116 | 178000 | 0.18 | 0.000266 | 1.48e+06 | 0.33 | 0.302 | 0.557 | 0.972 |  |  |  |  |  |  |  |  |  |  | KA-1836 H107D1210×H28G27V4-hIgG4M (bispecific antibody, PD1×LAG3 bispecific; first heavy chain targets PD1 (hIgG4 Knob), second targets LAG3 (hIgG4 Hole); common light chain 1) heavy 1: QVQLVESGGGLVKPGGSLRLSCAASGFTFSDYGMHWIRQAPGKGLEWVAYISSGSYTIYYADTVRDRFTISRDSAKNSLYLQMNSLRAEDTAVYYCVRRGPGYFGSTALDYWGQGTTVTVSSASTKGPSVFPLAPCSRSTSESTAALGCLVKDYFPEPVTVSWNSGALTSGVHTFPAVLQSSGLYSLSSVVTVPSSSLGTKTYTCNVDHKPSNTKVDKRVESKYGPPCPPCPAPEFLGGPSVFLFPPKPKDTLMISRTPEVTCVVVDVSQEDPEVQFNWYVDGVEVHNAKTKPREEQFNSTYRVVSVLTVLHQDWLNGKEYKCKVSNKGLPSSIEKTISKAKGQPREPQVYTLPPCQEEMTKNQVSLWCLVKGFYPSDIAVEWESNGQPENNYKTTPPVLDSDGSFFLYSRLTVDKSRWQEGNVFSCSVMHEALHNHYTQKSLSLSLG heavy 2: QVQLQESGPGLVKPSETLSLTCTVSGYSFTSGYYWNWIRQPPGKGLEWIGYVSYFGTANYNPALKNRVTISRDTSKNQFSLKLSSVTAADTAVYYCARGEEWDWSFDVWGQGTTVTVSSASTKGPSVFPLAPCSRSTSESTAALGCLVKDYFPEPVTVSWNSGALTSGVHTFPAVLQSSGLYSLSSVVTVPSSSLGTKTYTCNVDHKPSNTKVDKRVESKYGPPCPPCPAPEFLGGPSVFLFPPKPKDTLMISRTPEVTCVVVDVSQEDPEVQFNWYVDGVEVHNAKTKPREEQFNSTYRVVSVLTVLHQDWLNGKEYKCKVSNKGLPSSIEKTISKAKGQPREPQVCTLPPSQEEMTKNQVSLSCAVKGFYPSDIAVEWESNGQPENNYKTTPPVLDSDGSFFLVSRLTVDKSRWQEGNVFSCSVMHEALHNHYTQKSLSLSLG light: DIQITQSPSSLSASVGDRVTITCSATSGVSYMHWYQQKPGKAPKRLIYDTSRLASGVPSRFSGSGSGTDYTLTISSLQPEDFATYYCQQWSSNPPYTFGQGTRLEIKRTVAAPSVFIFPPSDEQLKSGTASVVCLLNNFYPREAKVQWKVDNALQSGNSQESVTEQDSKDSTYSLSSTLTLSKADYEKHKVYACEVTHQGLSSPVTKSFNRGEC
 |  |  |  |  |  |  |  |  |  | 6.87 | 0.00255 | 372000 | 0.0931 | 0.88 | 0.3 | 0.175 | 0.000111 | 633000 | 0.232 | KA-1793 H28G27V4×H107D1210-hIgG4M (bispecific antibody, PD1×LAG3 bispecific; first heavy chain targets PD1 (hIgG4 Hole), second targets LAG3 (hIgG4 Knob); common light chain 2) heavy 1: QVQLVESGGGLVKPGGSLRLSCAASGFTFSDYGMHWIRQAPGKGLEWVAYISSGSYTIYYADTVRDRFTISRDSAKNSLYLQMNSLRAEDTAVYYCVRRGPGYFGSTALDYWGQGTTVTVSSASTKGPSVFPLAPCSRSTSESTAALGCLVKDYFPEPVTVSWNSGALTSGVHTFPAVLQSSGLYSLSSVVTVPSSSLGTKTYTCNVDHKPSNTKVDKRVESKYGPPCPPCPAPEFLGGPSVFLFPPKPKDTLMISRTPEVTCVVVDVSQEDPEVQFNWYVDGVEVHNAKTKPREEQFNSTYRVVSVLTVLHQDWLNGKEYKCKVSNKGLPSSIEKTISKAKGQPREPQVCTLPPSQEEMTKNQVSLSCAVKGFYPSDIAVEWESNGQPENNYKTTPPVLDSDGSFFLVSRLTVDKSRWQEGNVFSCSVMHEALHNHYTQKSLSLSLG heavy 2: QVQLQESGPGLVKPSETLSLTCTVSGYSFTSGYYWNWIRQPPGKGLEWIGYVSYFGTANYNPALKNRVTISRDTSKNQFSLKLSSVTAADTAVYYCARGEEWDWSFDVWGQGTTVTVSSASTKGPSVFPLAPCSRSTSESTAALGCLVKDYFPEPVTVSWNSGALTSGVHTFPAVLQSSGLYSLSSVVTVPSSSLGTKTYTCNVDHKPSNTKVDKRVESKYGPPCPPCPAPEFLGGPSVFLFPPKPKDTLMISRTPEVTCVVVDVSQEDPEVQFNWYVDGVEVHNAKTKPREEQFNSTYRVVSVLTVLHQDWLNGKEYKCKVSNKGLPSSIEKTISKAKGQPREPQVYTLPPCQEEMTKNQVSLWCLVKGFYPSDIAVEWESNGQPENNYKTTPPVLDSDGSFFLYSRLTVDKSRWQEGNVFSCSVMHEALHNHYTQKSLSLSLG light: DIQITQSPSSLSASVGDRVTITCSASSSVSYMHWYQQKPGKAPKRLIYDTSKLASGVPSRFSGSGSGTDYTLTISSLQPEDFATYYCQQWSSNPPYTFGQGTRLEIKRTVAAPSVFIFPPSDEQLKSGTASVVCLLNNFYPREAKVQWKVDNALQSGNSQESVTEQDSKDSTYSLSSTLTLSKADYEKHKVYACEVTHQGLSSPVTKSFNRGEC
